# Data taken from the DeepSol protein solubility set.
# Assay: soluble on expression in E. coli; label from the status in PepcDB or PDB records
row,Sequence,soluble on expression in E. coli
1,MKTIKDWQINICLATYNGQKYLRQQLDSIIQQGYTDWICLIRDDGSTDDTVAIIKEYVNRDSRFIFINSNDDRKLGSHRSFYELVNYKKADFYVFSDQDDVWKENRLERYLEEAEKFNQELPLLVYSNWTSVDEKLTVLKEHNPATVIQEQIAFNQINGMVIMMNHELAKLWEYRQIGAHDSYVGTLAYAVGNVAYISDSTVLWRRQVGAESLNNYGRQYGVATFWQMINTSFDRASLIFAQVSDKMSLERKLFFSRFIELKNANLMRRIYLLSKLKLRRKSLKETVAMTILLLTGYGKPKALEHHHHHH,soluble
2,METLLTQILDRLDQLHSSVGALTSDVNEMKNQLNKIEARAGSIEERVNSIEARVDSIESRVNNIEANMATKDELAELRSKVDDIEAKMATKDELAELRSTVNGLQSNVNEIQAKMATKEELAELRSKVNELQFKVNELQSNVNEIQAKMATKDDLVPIRQAVMEIDQIVKRIEVNQERHEHILAILSKRSIEHEASIASLRQAQ,not soluble
3,ALNPNEHQLIKNVFGFIDVTVRQVMTPRTSINAIDIDLPLEYVLNKIVNEGYSRLPVYKDNIDNIIGILYTKDLLKMMNKGEQIKLQSAMRQPYFVPETKKINELLKNLQAKHLHMAIIIDEFGGVSGITTIEDIIEELVGEIQDEHDDEAPVVEQVSA,not soluble
4,MGSDKIHHHHHHEQEDKVSGEKTLAVVSASSDDRPSTRGIINDNTYALGVFRTTANTYAPLYNVKHIYSGGEWGADDVIKVDYRNASFFAYYPYHTATGNYAGLAGGTTLTLQAQLFNAGEDICYGAGEASGGGPVSVYNPFVEFLNMKHAYARLRLTLTRGEKFDKTKKCNIQNITFKSNNANFYLTRSLDIASTAGATGGSAVAAGYVHNPNVNIATGKSVTYEYMFPPQPLDGSKLTILVTVDGVTRSCDISTLGSSLDSGKYYGVSLTFTDVGIILSSAVVTVNNFGGQGNTQVDTEL,not soluble
5,MNKPENFEEAIEIKRDPEDFSVEEIADIEPDPNGKYTIIKARVRDWDTNRIAAEIARRLHMSRKRVTFAGTKDKRAVKLQYFCINSADVDVASLSGIKDFEVIESFKSSHYLTLGDLIANHFKIRFYGIDPEMFRERYVHIISKGGFPNFFGDQRFGSRRRNTHEIGKLIIKGEYEEAVKKYIYDEKYDKESYRKHFIDTLDYKTALERFPHSLSFERSLIGYYARNGTFKGAFDSLPKNLTIMFVHAYQSYLFNRILDERLKIYGLNAVLPGDIAFPVDAYFNPDKSKPIEVNSYNREKISKLVSSDKIRISLPIFGYKTWIDNSDFGDVEYGILKEEGISQDDFKNKDFAYLSSSGDRRIISAKPINFSLENNVVEFTLGKGIYATVFLSSIGRLKENVYSDSEAELLEHHHHHH,soluble
6,IDRMDRFALRFRALQNQYEQHKSPMRGLCGMRAGLIPHQLFIAHEVGRRYAPRVLLADEVGLGKTIEAGMIIHQQVLSGRAERVLIVVPETLQHQWLVEMMRRFNLHFSIFDEERCVEAYADSENPFDTAQFVLCSLDFIRKSKRRFEQVVEADWDLLVVDEAHHLEWNQTKPSREYQVIEAIAEETPGVLLLTATPE,not soluble
7,MYVENSYLSKQLCFLFYVSSKEIIKKYTNYLKEYDLTYTGYIVLMAIENDEKLNIKKLGERVFLDSGTLTPLLKKLEKKDYVVRTREEKDERNLQISLTEQGKAIKSPLAEISVKVFNEFNISEREASDIINNLRNFVSKNFDYSDKK,not soluble
8,MRKSRLSRYKQNKLIELFVAGVTARTATEPDSIVYTDCYRRYDVLDAGEFSHFRINHSTHFAERQNHINGIGNFWNRAKRHLRKFDGIPKEHFEPYLKECERRFNNSEIKVLVPFLEHHHHHH,not soluble
9,GMAHPPQIRIPATYLRGGTSKGVFFRLEDLPESCRVPGEARDRLFMRVIGSPDPYAAHIDGMGGATSSTSKCVILSKSSQPGHDVDYLYGQVSIDKPFVDWSGNCGNLSTGAGAFALHAGLVDPARIPEDGICEVRIWQANIGKTIIAHVPVSGGQVQETGDFELDGVTFPAAEIVLEFLDPSDDGEDGGAIFPTGNLVDDLEVPGVGTFKATMINAGIPTVFVNAEEIGYRGTELREEINGDPQQLARFERIRVAGALRMGLIKTPEEAATRQHTPKIAFVAPPRDYRTASGKLVAAGDIDLLVRALSMGKLHHAMMGTAAVAIGTAAAIPGTLVNLAAGGGERSAVRFGHPSGTLRVGAEASQANGEWTVTKAIMSRSARILMEGWVRVPGDAF,soluble
10,VLEQAVYNARVMDIRDIEKESQEQAPEVEMVSELGSDVVVLDIRSAEEEDEKPLELDGVEVTHIPFFKLATKFGDLDQSKEYLLYCERGVMSRLQALLLIENGYKNVKVYRP,not soluble
11,MNLKDLLAHRENLMDSAKRARSAITDDMDPADAAQAVENVKSIISEIESTDEAIAARRGVSDVTQKLKGLTITERGTENDSAASRSLGEHFVKAAGDRLKNQAAGAHIEYSVPEYQVKEDAHSSPKDLVEGWGTFYQR,soluble
12,TISQRPYRDRVIHLLALKAYKKPELLARLQKDGVNQKDKNSLGAILQQVANLNSKDLSYTLKDYVFKELQRDWPGYSEIDRRSLESVLSRKLN,soluble
13,MDELNRGHAGRTVIRNIEAACEMDPEKRVVISKTDQGSEANMPGHWTGCARPTRDPFVPFVAGRGESVAVRYNSRFGRRFDDQSVNGQPDPSLAYVFLGHELIHASRTLQGTQYRVSRGRPDVDEDSGAAEEELRTVGIGQYEDEYPSENAIRREHGLAPRTSYSGNTGTNLREPPERNSQYTEARLRSLNARRWSDM,not soluble
14,MSLNVKIAALASHSALDVFDGAKDEGFQTIGLCKKGRERPYLEFKAIMDKCIILEDFKEIISDKVQSILLSENAIIVPNRSLAVYVGYDGIEKMKTKVFGNRYMLRWEERIGEKNYYKILNEAKISIPKLFKPEEIDRPVIVKLPEAKRKVERGFFFAVNKEDFEAKLNELLRNNVIDNEGLKNMVIEEFVFGAHFNLNYFYSPIFNRLELISVDRRIQSDWDSLYRLPADIQIKLGRIPKLIEVGHEPVTIRESLLEKVFEIGYRFVDATQKLEPPGIIGPFTLQVMVTPDLDLVVYDVAPRIGGGTNVYMGTGSQYSKFYFGKPISLGRRIALEIKHAIINNLTEKILTEGHHHHHH,soluble
15,NGVWVIGEQREGKINPVTIELIGEGRKLADQLGKELAVVIAGYEVEKEVKELLHYSVDKVYYINDPLLKDFTTDGYAISIANLIERKKPEVVLVGATSIGRDIAPRIAGKVGTGLTADCTKLEIDSTDNKLLQTRPAFGGNLMATIVCPKNRPQMSTVRPGVMAKAVRNESETGILEVVTPELTEKMIRTRLVEILPQEKKSVN,soluble
16,MEMLSGAEMVVRSLIDQGVKQVFGYPGGAVLDIYDALHTVGGIDHVLVRHEQAAVHMADGLARATGEVGVVLVTSGPGATNAITGIATAYMDSIPLVVLSGQVATSLIGYDAFQECDMVGISRPVVKHSFLVKQTEDIPQVLKKAFWLAASGRPGPVVVDLPKDILNPANKLPYVWPESVSMRSYNPTTTGHKGQIKRALQTLVAAKKPVVYVGGGAITAGCHQQLKETVEALNLPVVCSLMGLGAFPATHRQALGMLGMHGTYEANMTMHNADVIFAVGVRFDDRTTNNLAKYCPNATVLHIDIDPTSISKTVTADIPIVGDARQVLEQMLELLSQESAHQPLDEIRDWWQQIEQWRARQCLKYDTHSEKIKPQAVIETLWRLTKGDAYVTSDVGQHQMFAALYYPFDKPRRWINSGGLGTMGFGLPAALGVKMALPEETVVCVTGDGSIQMNIQELSTALQYELPVLVVNLNNRYLGMVKQWQDMIYSGRHSQSYMQSLPDFVRLAEAYGHVGIQISHPHELESKLSEALEQVRNNRLVFVDVTVDGSEHVYPMQIRGGGMDEMWLSKTERT,soluble
17,MSEITASRPEVVNGHTDVICSTSIRHILAVRKSTLLQIDTLIRQLAEVSAMTESIRGKTALDWAMKQDFRCGCWLMEKPETAMKAITRNLDRELWRDLMQRSGMLSLMDAQTRDTWYRSLEYDNFPEISEANILSTFEQLHQNKDEVFERGVINVFKGLSWDYKTNSPCKFGSKIIVNNLVRWDRWGFHLITGQQTDRLVDLERMLHLFSGKPIPDNRENITIRLDGHIQSVQGKERYEDEMFIIKYFKKGSAHITFKRLELIDRINDIIARYFPSVLSA,not soluble
18,MENFSLLYSSEEDALLSYADIRNFQLVWNMVDIEQKRSIPVRRVKFLLRLLKGRLEVNDESDGLLFKHMCHEMERLHNGDDVSFHDVLNMLSYRSVDIRKSLQLEELLQREELEYIIEEEVAKHTIRAWLENCLKNIKAKQNNTLGKMSSIGSTFAFPQSQEVLTKGVVLTEASPEEDSLQGDKGSGKKKAQRGNSITEIVAEAQKKSVKRATDKISERRGTLRQMQMGTYDELEEVEEDEDTDGEIRRSSFEYSGVDMIQMSHEKQLEDVKTWWTLCD,not soluble
19,MTESTSLDELFKDRYSQNDERYKKMSETGFEPVIVVHPWEPRRNNNYRNRGNFGGGRGGGYQHRDNSNRGGWVPRGGGQRGGYRGGWQDRGGHRGGGGWQDRGGQRQPYRGGDRRRQYND,soluble
20,MESGPAVCCQDPRAELVDRVAAINVAHLEEADEGPEPARNGVDPPPRARAASVIPGSASRPTPVRPSLSARKFSLQERPAGSCLGAQVGPYSTGPASHISPRSWRRPTIESHRVAISDTEDCVQLNQYKLQSEIGKGAYGVVRLAYNESEDRHYAMKVLSKKKLLKQYGFPRRPPPRGSQATQGGPAKQLLPLERVYQEIAILKKLDHVNVVKLIEVLDDPAEDNLYLVFDLLRKGPVMEVPCDKPFPEEQARLYLRDIILGLEYLHCQKIVHRDIKPSNLLLGDDGHVKIADFGVSNQFEGNDAQLSSTAGTPAFMAPEAISDSGQSFSGKALDVWATGVTLYCFVYGKCPFIDDYILTLHRKIKNEAVVFPEEPEVSEDLKDLILRMLDKNPETRIGVSDIKLHPWVTKHGEEPLPSEEEHCSVVEVTEEEVKNSVRLIPSWTTVILVKSMLRKRSFGNPFEPQARREERSMSAPGSLLMKEGCGEGCKSPELPGVQEDEAAS,soluble
21,LFQKLHQSLQVGEKEEDMYELLISSSMTTVMADAAWLEIRDNKGGLKAFQNSNIDEYDVFEIKKALRKNQVNISSEPQYIKDILSYPHTEKIKHLDYKSFLLIPLTSNNQLIGTLVLLKNLNDGFDKEMVDIIFTFVSQASISIKNFRLMSDAIQTERYQEELKIAKD,not soluble
22,MKSLEEKTIAKEQIFSGKVIDLYVEDVELPNGKASKREIVKHPGAVAVLAVTDEGKIIMVKQFRKPLERTIVEIPAGKLEKGEEPEYTALRELEEETGYTAKKLTKITAFYTSPGFADEIVHVFLAEELSVLEEKRELDEDEFVEVMEVTLEDALKLVESREVYDAKTAYAIQYLQLKEALQAQK,not soluble
23,MSSKPLLTLQELAAQNILRNEALAISALQYLPELFLPQLLKQAYDGNHLKVLRAIVSSWPFPRLPLGALKKRTPYLETQLQVVLEEVDKLLIQEVHPREYKLEVLDLRSVGQNYLNVWPGAMDDWLPKTTQTDPCCSKTVMTQPLKVLVDLQLNNRGQSRLFSYLVQWSDRRKGLLQLYCNKLQIWSPSQQNYRKLSQKVNLDYVETLGLHSSCSPSFLLNFAPYLRQMRNLRKLALSNIREEHIISPEKRRCIITRFTLQILKLESLQKLHLDAVCFLEGHLDQLLGSVKTSLDELAVTHCNLSVSEWSHFSEFPCVSQLQQLNLENVRLTGLSPEPLQVLLVKAGPTLVALDLEDCHLEDGQLYAILPALSKCFKLTKFSFYGNQISMLAMKDLLHHTASLIHLRLELYPVPQDSYDYHGTPLMQRMQQHCDELMNLLKTFRNPGRVFFGTDRCDQCCNRYIYNKTIMCNCRRSY,not soluble
